Blank lines part the entries; values can stand above or below the binder they belong to. Non-standard residues stand in square brackets, D forms with d. No end group written: not given here. *: point of attachment. Biotin = O=C1N[C@H]2[C@H](CS[C@H]2CCCCC(=O)*)N1; sY = N[C@@H](Cc1ccc(OS(=O)(=O)O)cc1)C(=O)O
Experiments:
[1] = target: T1, Biotin Y46,48,51(SO3) PSGL-1(42-62) peptide (human, sulfotyrosine at Y46, Y48 and Y51; C-terminal Lys-biotin); experiment: ELISA, immobilized biotin peptide
T1 construct: also called fully sulfated N-terminal PSGL-1 peptide
T1 peptide: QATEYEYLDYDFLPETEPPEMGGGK
Protocol: (§1) A typical ELISA was performed by coating high binding half-well plates (Corning Cat. #3690) with 3 ug/mL/25 ul per well of biotinylated N-terminal PSGL-1 peptides, which incorporated residues 42 to 62 of the protein, in PBS, pH 7.4, overnight at 4° C. The peptide was unmodified or contained sulfated tyrosine at all 3 tyrosine positions (46, 48, and 51) or at one position (tyr51) (Table 7).
(§2) PSGL-1 protein or peptide served as a positive control. […] […] […] For each antibody, duplicate values were averaged and average assay background was subtracted.

[2] = target: T2, Biotin PSGL-1(42-62) peptide, unmodified (human, C-terminal Lys-biotin); experiment: ELISA, immobilized biotin peptide
T2 construct: Residues 42-62 followed by GGGK-biotin; also called WT; wild-type
T2 peptide: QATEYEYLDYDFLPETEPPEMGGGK
Protocol: as §1, §2

[3] = target: T3, Sulfotyr fibrinogen γ peptide (not fully specified; Y8 and Y12 sulfated (SO3); C-terminal biotin); experiment: ELISA, 50 nM mAb
T3 construct: also called Fibrinogen gamma peptide; human sulfotyrosinylated fibrinogen peptide
T3 peptide: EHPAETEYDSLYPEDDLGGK
Protocol: (§3) Recombinant PSGL-1-hFc1 chimera protein consisting of PSGL-1's extracellular domain (ECD) served as a positive control. […] Primary antibody was added (25 ul per well) in duplicate at 50 nM in assay buffer (blocking buffer containing 0.05% Tween®20) into test and control (just blocked) wells and the plate incubated for 45 min at 37° C.

[4] = target: T4, Sulfotyrosine CCR2b biotin peptide (human); experiment: ELISA, 50 nM mAb
T4 construct: also called CCR2b peptide
T4 peptide: TTFFD[sY]D[sY]GAPSHGGK(Biotin)
Protocol: as §3

[5] = target: T5, Sulfotyrosine D6 biotin peptide (human); experiment: ELISA, 50 nM mAb
T5 construct: also called D6 peptide
T5 peptide: ENSSFY[sY][sY]D[sY]LDEVAFGGK(Biotin)
Protocol: as §3

[6] = target: T6, Recombinant human PSGL-1(ECD)-hFc1 (R&D Systems, Cat. 3345-PS) (human, UniProt Q14242 42-305); experiment: ELISA, 50 nM mAb
T6 construct: Bought; Gln42-Val295 counted on AAC50061; also called PSGL-1-Fc; PSGL-1-hFc1 chimera; not shown: human IgG1 Fc, Pro100-Lys330
T6 sequence: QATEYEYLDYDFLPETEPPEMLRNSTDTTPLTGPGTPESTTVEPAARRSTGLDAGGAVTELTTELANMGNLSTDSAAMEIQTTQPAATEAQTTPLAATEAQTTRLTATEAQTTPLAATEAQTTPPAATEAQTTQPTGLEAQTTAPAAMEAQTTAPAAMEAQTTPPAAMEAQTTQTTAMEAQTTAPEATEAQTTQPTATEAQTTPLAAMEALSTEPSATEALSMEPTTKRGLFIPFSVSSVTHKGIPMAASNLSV
Protocol: as §3

SulfoTyr C4 peptide = target: T7, SulfoTyr C4 peptide (not fully specified; Y4, Y7 and Y9 sulfated (SO3); C-terminal biotin); experiment: ELISA, 50 nM mAb
T7 construct: also called C4 alpha chain peptide; human sulfotyrosinylated C4 peptide
T7 peptide: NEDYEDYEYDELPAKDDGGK
Protocol: as §3

[7] = target: T8, Human complement C4 protein (Millipore Sigma, Cat. 204886) (human, UniProt P0C0L4 20-675; P0C0L4 680-1446; P0C0L4 1454-1744, limits assumed, natural sulfotyrosines); experiment: ELISA, 50 nM mAb
T8 construct: mature
T8 sequence (P0C0L4 20-675 limits assumed, form in doubt, chain 1 of 3): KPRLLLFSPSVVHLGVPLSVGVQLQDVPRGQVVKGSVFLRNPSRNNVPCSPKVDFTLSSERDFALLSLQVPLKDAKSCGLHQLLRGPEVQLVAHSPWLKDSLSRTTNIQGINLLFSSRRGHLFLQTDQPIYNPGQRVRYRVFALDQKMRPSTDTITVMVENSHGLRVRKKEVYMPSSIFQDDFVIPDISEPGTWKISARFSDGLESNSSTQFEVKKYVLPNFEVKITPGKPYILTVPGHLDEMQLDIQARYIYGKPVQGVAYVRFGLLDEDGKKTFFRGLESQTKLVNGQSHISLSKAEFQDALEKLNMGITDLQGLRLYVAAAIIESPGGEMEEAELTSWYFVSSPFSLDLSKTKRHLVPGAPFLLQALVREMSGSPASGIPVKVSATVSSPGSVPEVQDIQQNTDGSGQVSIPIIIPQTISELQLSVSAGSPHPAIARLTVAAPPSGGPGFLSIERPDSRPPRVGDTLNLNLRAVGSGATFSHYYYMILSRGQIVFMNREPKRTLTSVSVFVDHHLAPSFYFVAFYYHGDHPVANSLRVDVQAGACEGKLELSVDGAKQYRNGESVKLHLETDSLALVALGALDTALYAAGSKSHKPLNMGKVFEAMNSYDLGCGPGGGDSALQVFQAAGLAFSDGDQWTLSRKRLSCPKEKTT
T8 sequence (P0C0L4 680-1446 limits assumed, form in doubt, chain 2 of 3): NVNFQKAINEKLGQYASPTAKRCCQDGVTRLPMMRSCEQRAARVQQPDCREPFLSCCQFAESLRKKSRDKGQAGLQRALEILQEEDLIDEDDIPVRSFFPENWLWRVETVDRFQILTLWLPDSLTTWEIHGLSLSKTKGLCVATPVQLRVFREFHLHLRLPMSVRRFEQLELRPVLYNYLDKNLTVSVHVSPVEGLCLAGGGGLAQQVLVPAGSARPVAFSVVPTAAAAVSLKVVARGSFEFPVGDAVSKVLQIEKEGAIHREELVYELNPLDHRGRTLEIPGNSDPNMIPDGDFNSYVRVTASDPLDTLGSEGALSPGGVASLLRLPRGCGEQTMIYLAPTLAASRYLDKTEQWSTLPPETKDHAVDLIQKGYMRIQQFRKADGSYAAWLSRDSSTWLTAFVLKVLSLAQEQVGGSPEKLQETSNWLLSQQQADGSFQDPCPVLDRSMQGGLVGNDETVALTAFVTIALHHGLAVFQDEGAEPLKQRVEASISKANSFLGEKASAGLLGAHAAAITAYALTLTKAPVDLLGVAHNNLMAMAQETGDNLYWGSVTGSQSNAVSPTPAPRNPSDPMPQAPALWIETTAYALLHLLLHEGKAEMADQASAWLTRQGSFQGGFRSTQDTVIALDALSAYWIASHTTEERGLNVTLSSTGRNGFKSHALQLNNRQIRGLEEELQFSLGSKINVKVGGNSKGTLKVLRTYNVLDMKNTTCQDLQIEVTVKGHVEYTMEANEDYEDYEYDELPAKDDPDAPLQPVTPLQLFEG
T8 sequence (P0C0L4 1454-1744 limits assumed, form in doubt, chain 3 of 3): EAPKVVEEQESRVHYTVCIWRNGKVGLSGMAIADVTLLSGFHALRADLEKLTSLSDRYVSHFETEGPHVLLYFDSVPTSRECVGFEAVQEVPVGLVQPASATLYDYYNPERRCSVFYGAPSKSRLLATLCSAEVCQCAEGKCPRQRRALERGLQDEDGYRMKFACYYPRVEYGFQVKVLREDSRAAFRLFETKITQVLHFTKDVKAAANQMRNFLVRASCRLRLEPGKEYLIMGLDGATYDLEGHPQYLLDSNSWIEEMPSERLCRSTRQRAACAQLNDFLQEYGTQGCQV
Protocol: as §3

SulfoCCK biotin peptide = target: T9, SulfoCCK biotin peptide (human); experiment: ELISA, 50 nM mAb
T9 construct: also called sulfotyrosine CCK peptide
T9 peptide: SHRISDRD[sY]MGWMDFGGK(Biotin)
Protocol: as §3

[8] = target: T10, Human fibrinogen protein (ThermoFisher, RP-43142) (human, UniProt P02671 20-629; P02675 31-491; P02679 27-453, limits assumed, natural sulfotyrosines); experiment: ELISA, 50 nM mAb
T10 construct: mature; Native dimer with 3 pairs of non-identical chains; also called gamma-fibrinogen; γ fibrinogen protein
T10 sequence (looked up) 1: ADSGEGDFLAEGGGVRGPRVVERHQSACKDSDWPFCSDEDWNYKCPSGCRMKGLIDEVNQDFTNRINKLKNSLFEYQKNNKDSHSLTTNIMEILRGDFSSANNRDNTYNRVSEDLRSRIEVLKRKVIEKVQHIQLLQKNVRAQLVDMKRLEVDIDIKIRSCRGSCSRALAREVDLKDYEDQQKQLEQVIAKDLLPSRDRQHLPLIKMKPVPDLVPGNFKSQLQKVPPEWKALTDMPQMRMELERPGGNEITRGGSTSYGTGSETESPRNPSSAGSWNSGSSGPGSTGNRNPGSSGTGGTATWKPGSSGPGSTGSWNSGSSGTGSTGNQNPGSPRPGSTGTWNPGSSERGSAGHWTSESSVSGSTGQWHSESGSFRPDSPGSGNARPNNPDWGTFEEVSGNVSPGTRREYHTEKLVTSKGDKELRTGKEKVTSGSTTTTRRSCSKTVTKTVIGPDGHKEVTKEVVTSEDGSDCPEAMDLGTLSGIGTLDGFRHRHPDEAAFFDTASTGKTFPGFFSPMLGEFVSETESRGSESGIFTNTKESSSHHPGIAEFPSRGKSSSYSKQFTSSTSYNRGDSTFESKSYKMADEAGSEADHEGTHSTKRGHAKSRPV
T10 sequence (looked up) 2: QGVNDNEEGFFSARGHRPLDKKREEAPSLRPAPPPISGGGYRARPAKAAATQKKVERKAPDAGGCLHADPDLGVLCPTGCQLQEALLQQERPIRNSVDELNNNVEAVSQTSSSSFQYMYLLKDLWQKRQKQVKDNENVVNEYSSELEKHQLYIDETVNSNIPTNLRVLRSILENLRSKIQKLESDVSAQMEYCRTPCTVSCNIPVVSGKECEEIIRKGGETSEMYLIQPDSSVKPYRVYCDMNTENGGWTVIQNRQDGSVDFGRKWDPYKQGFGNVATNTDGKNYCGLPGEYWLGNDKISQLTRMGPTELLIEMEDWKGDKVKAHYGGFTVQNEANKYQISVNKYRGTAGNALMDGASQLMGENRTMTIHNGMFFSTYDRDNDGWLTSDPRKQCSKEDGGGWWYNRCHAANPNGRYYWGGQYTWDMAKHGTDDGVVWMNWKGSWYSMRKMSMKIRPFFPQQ
T10 sequence (looked up) 3: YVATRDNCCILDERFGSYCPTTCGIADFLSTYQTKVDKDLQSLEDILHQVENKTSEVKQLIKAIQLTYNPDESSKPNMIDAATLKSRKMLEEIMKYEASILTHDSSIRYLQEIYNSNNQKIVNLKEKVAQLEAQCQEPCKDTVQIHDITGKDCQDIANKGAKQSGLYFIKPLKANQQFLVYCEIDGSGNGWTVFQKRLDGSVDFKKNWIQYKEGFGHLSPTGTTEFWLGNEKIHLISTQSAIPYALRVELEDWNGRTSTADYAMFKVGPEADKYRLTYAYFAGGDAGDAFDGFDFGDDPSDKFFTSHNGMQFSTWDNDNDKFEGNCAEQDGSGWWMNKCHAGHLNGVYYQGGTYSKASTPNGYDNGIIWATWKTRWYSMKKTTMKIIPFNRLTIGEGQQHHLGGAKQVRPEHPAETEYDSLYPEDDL
Protocol: as §3

[9] = target: T11, Cynomolgus PSGL-1(ECD)-hFc1 (cynomolgus macaque); experiment: ELISA, 20 nM mAb on plate cyno PSGL-1(ECD)-Fc
T11 construct: also called Cyno PSGL1-Fc; Cyno PSGL-1(ECD)-Fc
Protocol: Antibody binding to plate-immobilized cyno PSGL-1(ECD) was determined either at one concentration (20 nM) or by generating full antibody binding curves (0.003-200 nM). A typical ELISA was performed by overnight coating at 4° C. with 3 ug/mL/25 ul per well of recombinant cyno PSGL-1(ECD) protein in PBS, pH 7.4, in high binding half-well plates (Corning Cat. #3690). […] Anti-PSGL-1 IgG in assay buffer (blocking buffer containing 0.05% tween 20) was added into test and control wells (20 nM/25 ul/well) and the plate incubated for 45 min at 37° C. […] The plate was incubated for 45 min at 37° C., and mAb bound to plate-immobilized target determined at A450 nm using HRP substrate (3,3′,5,5′-tetramethylbenzidine (TMB)). For each antibody, duplicate values were averaged and assay background subtracted.

[10] = target: T12, Scrambled Y42,52,63(SO3) PSGL-1(42-62) biotin peptide (sulfotyrosine at peptide positions 1, 11 and 22; C-terminal Lys-biotin); experiment: ELISA, immobilized biotin peptide
T12 peptide: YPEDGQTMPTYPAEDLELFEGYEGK
Protocol: as §1, §2

A450nm, 20 nM mAb [1]: 2.8 A450nm
EC50 [1]: 0.07 nM
EC50 [2]: ~0.05 nM
binding normalized to PSGL-1 [3]: 0.3
binding normalized to PSGL-1 [4]: 0.26
binding normalized to PSGL-1 [5]: 0.56
A450nm [6]: 1.96 A450nm
binding normalized to PSGL-1 (SulfoTyr C4 peptide): 0.35
binding normalized to PSGL-1 [7]: 0.22
binding normalized to PSGL-1 (SulfoCCK biotin peptide): 0.25
binding normalized to PSGL-1 [8]: -0.15
binding result [8]: no binding (tested: 50 nM)
A450nm [9]: 1.77 A450 nm
B1: 09B09 (antibody, IgG4, V domains shown)
VH: EVKLLESGGGLVQPGGSLRLSCAASGITFSTYAMMWVRQAPGKGLEWVSGISGSGASRYYADSVKGRFTISRDNSKNMLYLQMNSLRAEDTAVYYCAKKVLGRRKQYFDDWGQGTLVTVSS
VL: DIVMTQSPLSLPVTPGEPASISCRSSQSLLHSNGYNYLDWYLQRPGQSPQLLIYLGSHRASGVPDRFSGSGSGTEHTLKITTVAAEDVGVYYCMQALQSPPTFGQGTRLDIK

A450nm, 20 nM mAb [1]: 2.72 A450nm
binding result [10]: no binding (tested: 20 nM)
A450nm, 20 nM mAb [2]: 0.26 A450nm
binding normalized to PSGL-1 [3]: 0.85
binding normalized to PSGL-1 [5]: 0.75
A450nm [6]: 2.32 A450nm
binding normalized to PSGL-1 (SulfoTyr C4 peptide): 0.83
binding normalized to PSGL-1 [7]: 0.94
binding normalized to PSGL-1 (SulfoCCK biotin peptide): 0.58
binding normalized to PSGL-1 [8]: 0.2
A450nm [9]: 0.83 A450 nm
B2: 01E01 (antibody, V domains shown)
VH: EVQLVQSGGGVVQPGRSLRLSCAASGFTFSSYGMHWVRQAPGKGLEWVAVISYDGSNKYYADSVKGRFTISRDNSKNTLYLQMHSLRAEDTAVYYCANLVGTTNSWGQGTLVTVSS
VL: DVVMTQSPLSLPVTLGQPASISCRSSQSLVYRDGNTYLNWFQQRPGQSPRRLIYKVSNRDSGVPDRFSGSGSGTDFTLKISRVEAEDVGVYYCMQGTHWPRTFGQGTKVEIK

A450nm, 20 nM mAb [1]: 2.79 A450nm
EC50 [1]: 0.05 nM
EC50 [2]: ~0.05 nM
binding normalized to PSGL-1 [3]: 0.09
binding normalized to PSGL-1 [4]: 0.04
binding normalized to PSGL-1 [5]: 0.26
A450nm [6]: 2.65 A450nm
binding normalized to PSGL-1 (SulfoTyr C4 peptide): 0.05
binding normalized to PSGL-1 [7]: 0.32
binding normalized to PSGL-1 (SulfoCCK biotin peptide): 0.06
binding normalized to PSGL-1 [8]: 0.07
A450nm [9]: 2.11 A450 nm
B3: 09D11 (antibody, IgG4, V domains shown)
VH: QVQLVESGGGFIQPGGSLRLSCAASGLTFSNYAMTWVRQAPGKGLEWVSTISGGGGNTYYTDSVKGRFTISRDNSKNTLYLQMNSLKAEDTAVYRCAKGLAAALFDYWGQGTLVTVSS
VL: DIVLTQSPDSLPVTPGEPASISCRSSRSLLHSNGHNFLAWYLQKPGQSPHLLIYLGSNRASGVPDRFSGSGSGTDFTLKISRVEAEDVGIYYCMQALQTPITFGQGTRLDIK

A450nm, 20 nM mAb [1]: 2.61 A450nm
EC50 [1]: 0.16 nM
EC50 [2]: 6.2 nM
binding normalized to PSGL-1 [3]: 0.59
binding normalized to PSGL-1 [4]: 0.27
binding normalized to PSGL-1 [5]: 0.52
A450nm [6]: 2.28 A450nm
binding normalized to PSGL-1 (SulfoTyr C4 peptide): 0.61
binding normalized to PSGL-1 [7]: 0.47
binding normalized to PSGL-1 (SulfoCCK biotin peptide): 0.23
binding normalized to PSGL-1 [8]: 0.05
A450nm [9]: 0.39 A450 nm
B4: 03E05 (antibody, IgG4, V domains shown)
VH: EVKLLESGGDLAQTGGSLRLSCVASGFTFSSYPMSWVRQAPGKGLEWVSAIRRSGATQYADSVKGRFTISRDNSKNTVYLQMNSLRVEDTAVYYCAKGTYDLGQGTLVTVSS
VL: DIVMTQTPLSLPVTLGQPASISCRSSQSLVYSDGNTYLNWFHQRPGQSPRRLIYKVSNRDSGVPDRFSGSGSDTEFTLKISRVEAEDVGVYYCMQATHWPLTFGGGTKVEIK

A450nm, 20 nM mAb [1]: 2.67 A450nm
A450nm, 20 nM mAb [10]: 0.03 A450nm
binding result [10]: no binding (tested: 20 nM)
A450nm, 20 nM mAb [2]: 1.12 A450nm
binding normalized to PSGL-1 [3]: 0.09
binding normalized to PSGL-1 [4]: 0.63
binding normalized to PSGL-1 [5]: 0.11
binding normalized to PSGL-1 (SulfoTyr C4 peptide): 0.07
binding normalized to PSGL-1 [7]: 0.79
binding normalized to PSGL-1 (SulfoCCK biotin peptide): 0.63
binding normalized to PSGL-1 [8]: 0.17
A450nm [9]: 0.78 A450 nm
B5: 01A11 (antibody, IgG4, V domains shown)
VH: EVKLLESGGGLVQPGGSLRLSCATSGFSFSDYWMSWVRQAPGKGLEWVASIKKDGSEKYYVDSVKGRFTISRDNAKNSLYVQMNSLRAEDTAIYYCVVFGAWGPGTLVTVSS
VL: DIVMTQTPLSLPVTLGQPASISCRSGRSLVYSDGNTYLNWFQQRPGQSPRRLIYKVSNRDSGVPDRFSGGGSGTDFTLKISRVEAEDVAIYYCMQGTHWPPTFGQGTKLEIK
